Measurements taken from US11340233B2, “Universal method to capture and analyze ADCs for characterization of drug distribution and the drug-to-antibody ratio in biological samples” (priority 2016, dated 2022).

Key:
[1] = In vitro ADC stability in cynomolgus monkey serum, immunoprecipitation, reduction and LC-MS; assay type: in vitro ADME, Cynomolgus (Macaca fascicularis); conditions: spiked 100 μg/mL, 37° C.
Description: (§1) ADCs were spiked in sterile mouse, rat or cynomolgus serum at a concentration of 100 μg/ml. Aliquots of 100 μl were incubated at +37° C. in Protein LoBind Tube (Eppendorf, Montesson, France). At specific times (day 1, day 4, day 7 and day 11) samples were removed from the oven and stored at −20° C. until sample processing and analysis.
ADCs were immunoprecipitated from sera using the following protocol. Briefly, 100 μl M-280 Streptavidin magnetics beads suspension were washed three times with HBS-EP buffer (0.01 M HEPES pH 7.4, 0.15 M NaCl, 3 mM EDTA, 0.005% v/v Surfactant P20) and incubated for 30 min at RT with the CaptureSelect™ Human IgG-Fc PK Biotin conjugate. Serum samples from stability studies were then added to the beads and incubated for 2 h at RT. After washing steps with HBS-EP buffer and HBS buffer (10 mM HEPES, 150 mM NaCl, 3 mM EDTA pH 7.6), the ADC was eluted with 0.4% TFA in water. After freeze drying, the samples were reconstituted and incubated with 34 mM DTT in denaturing buffer (6 M Guanidine, 0.1 M Tris, 2 mM EDTA pH 8.0) for 45 min at 56° C.
Acetic acid was then added to quench the reaction and samples were analysed by LC-MS.
Reverse phase separation was performed on an ultra-high performance liquid chromatography (UHPLC) system (Acquity UPLC H-Class Bio system, Waters) coupled to a Synapt G2si mass spectrometer, instrument control was performed using MassLynx® software (Waters).
The reduced samples were directly injected on a PLRP-S column (2.1×150 mm 8 μm, 1000 Å, Agilent) heated at 80° C. with a flow rate of 0.5 ml/min. Elution was performed with water as eluent A and acetonitrile as eluent B, both containing 0.05% TFA. The following elution gradient was applied, B was raised from 30% to 45% in 13 min and then from 45% to 95% in 2 min. The column was washed using 95% B and equilibrated using 30% B for 10 min. The autosampler temperature was set at 10° C. […]
Data were analysed using Biopharmalynx™ (Waters) software. […]

[2] = In vitro stability in cynomolgus monkey serum by total antibody and ADC ELISAs; assay type: in vitro ADME, Cynomolgus (Macaca fascicularis); conditions: 37° C., ELISA
Description: as §1
Four different Ligand Binding Assay (LBAs) systems were used to determine Total Ab or ADC concentrations for ADC1 and ADC2[19]. More precisely, an antigen-specific assay was used for ADC1 and a universal method for ADC2. For the ADC quantification, specific anti-drugs were used relevant to the payload of the ADC.
Briefly, standard microtiter plates (MSD, Gaithersburg, USA) were coated at a concentration of 2 μg/ml Goat anti Human IgG, Monkey adsorbed antibody (SouthernBiotech) for Total Ab or of 3 μg/ml mouse monoclonal antibody raised against the payloads (Epitope Diagnostic Inc.) for ADC assays in PBS. After an overnight incubation at 4° C., plates were treated with blocking buffer (3% MSD Blocker A (MSD, Gaithersburg, USA)) for 1 h at 37° C. In parallel, the standard curves (1000 ng/ml-0.488 ng/ml) using reference immunoconjugates (ADC1 or ADC2) were prepared in assay buffer (1% MSD Blocker in TBS+0.02% Tween 20). Serum samples were diluted to 1:1000 or 1:5000 in a separate 2-ml deep 96-well polypropylene plate in MSD assay buffer. Standards and samples were then loaded onto the assay plate and incubated for 1 h at 37° C. After washing with 1×PBS, the detection step was done using a 2.5 μg/ml solution of the biotinylated antigen for the ADC1 (in house preparation) or a goat anti-human Ig Kappa sulfo-tag solution (in house preparation) diluted to 1 μg/ml in assay buffer for ADC2. After a 30-min incubation at 37° C., and a washing step, the detection was allowed by adding 150 μl of a 2×MSD-read T buffer containing surfactant (MSD, Gaithersburg, USA) just before reading using MSD Sector Imager.
The amount of total antibody and ADC, in serum samples was evaluated in parallel by a quantitative sandwich ELISA. […]

Brentuximab vedotin [ADC2]
average DAR ([1]; day 0): 4.5 | average DAR ([1]; day 4): 2.0 | average DAR ([1]; days 4 to 11): stable | ADC level normalized against the total Ab concentration at each time point ([2]; 11 days): decreased mainly during the four first days | ADC concentration ([2]; over the 11-day period): decreased during this period | total Ab level ([2]; over the 11-day period): ~100 µg/mL
